Measurements taken from article PMC6309520.
Read-outs that look alike come from different tables or passages of the source.

What was measured:
Experiment in all cases: Michaelis-Menten kinetics
[1] = substrate: Nc1ncnc2c1ncn2[C@@H]1O[C@H](COP(=O)(O)OP(=O)(O)OC[C@H]2O[C@H](Oc3ccc4c(C(F)(F)F)cc(=O)oc4c3)[C@H](O)[C@@H]2O)[C@@H](O)[C@H]1O; type: biochemical, Tetrahymena thermophila
[2] = substrate: Nc1ncnc2c1ncn2[C@@H]1O[C@H](COP(=O)(O)OP(=O)(O)OC[C@H]2O[C@H](Oc3ccc([N+](=O)[O-])cc3)[C@H](O)[C@@H]2O)[C@@H](O)[C@H]1O; type: biochemical, Tetrahymena thermophila
[3] = substrate: Nc1ncnc2c1ncn2[C@@H]1O[C@H](COP(=O)(O)OP(=O)(O)OC[C@H]2O[C@H](Oc3ccc4c(C(F)(F)F)cc(=O)oc4c3)[C@H](O)[C@@H]2O)[C@@H](O)[C@H]1O; type: biochemical, Homo sapiens
[4] = substrate: Nc1ncnc2c1ncn2[C@@H]1O[C@H](COP(=O)(O)OP(=O)(O)OC[C@H]2O[C@H](Oc3ccc([N+](=O)[O-])cc3)[C@H](O)[C@@H]2O)[C@@H](O)[C@H]1O; type: biochemical, Homo sapiens; conditions: Mg2+ ([…] MgCl2 in assay buffer)

B1: ttPARG (T. thermophila PARG) (Tetrahymena thermophila) (protein)
chain: MIEAEKQENKKIQDYQFPLPQKNSELWIIQKKTLQDLSSGKQKLDSFQSLESILEILRDSKNQNDEKYFNLKAVFEQLDKEEQTYFLEQFIPKICQLVLKIKKKQLKNQIPKESKIYEAAFSREEISYYVSCMFLCILKDQDRKIYKDFRLIYLKDLVQQINIRRQEKIKCFYEYLKQALDFSEKESKEVVIFQRINCGQLEDYENWVDKLKAIKLKNVQLTDDKLIEDFPGTLQVDFANCDIGGGILGNGLVQEEIRFCVCPEMLVSLLVFDQSMEANEVIIMKGIKQYSDYQGYSNSFRFVKMGNSKIQKQKRNNPQTILAIDALCFNSSDNQFSEVNVSRELNKSYMGFKQEDQLKTISTGKWGCGAFLGVFDLKFAIQWIASSRSNKKMIICTFQDEQTTKQIQQVFDLYKQKNASIFLKLVMDYPNSKYMEDYTLLEYLIELGKEKATSKNS
[1]
  Km: 210 ± 13 µM
  Vmax: 28.6 µmol/min/mg
[2]
  Km: 210 ± 10 µM
  Vmax: 16.9 µmol/min/mg

B2: ARH3 (ADP-ribosyl hydrolase 3, ADPRHL2) (Homo sapiens) (protein)
chain: MAAAAMAAAAGGGAGAARSLSRFRGCLAGALLGDCVGSFYEAHDTVDLTSVLRHVQSLEPDPGTPGSERTEALYYTDDTAMARALVQSLLAKEAFDEVDMAHRFAQEYKKDPDRGYGAGVVTVFKKLLNPKCRDVFEPARAQFNGKGSYGNGGAMRVAGISLAYSSVQDVQKFARLSAQLTHASSLGYNGAILQALAVHLALQGESSSEHFLKQLLGHMEDLEGDAQSVLDARELGMEERPYSSRLKKIGELLDQASVTREEVVSELGNGIAAFESVPTAIYCFLRCMEPDPEIPSAFNSLQRTLIYSISLGGDTDTIATMAGAIAGAYYGMDQVPESWQQSCEGYEETDILAQSLHRVFQKS
[3]; Mg2+ ([…] MgCl2 in assay buffer)
  Km: 6.3 ± 0.2 µM
  Vmax: 1.61 µmol/min/mg
[4]
  Km: 3.2 ± 0.6 µM
  Vmax: 1.7 µmol/min/mg

B3: PARG (poly(ADP-ribose) glycohydrolase) (Homo sapiens) (protein)
chain: MNAGPGCEPCTKRPRWGAATTSPAASDARSFPSRQRRVLDPKDAHVQFRVPPSSPACVPGRAGQHRGSATSLVFKQKTITSWMDTKGIKTAESESLDSKENNNTRIESMMSSVQKDNFYQHNVEKLENVSQLSLDKSPTEKSTQYLNQHQTAAMCKWQNEGKHTEQLLESEPQTVTLVPEQFSNANIDRSPQNDDHSDTDSEENRDNQQFLTTVKLANAKQTTEDEQAREAKSHQKCSKSCDPGEDCASCQQDEIDVVPESPLSDVGSEDVGTGPKNDNKLTRQESCLGNSPPFEKESEPESPMDVDNSKNSCQDSEADEETSPGFDEQEDGSSSQTANKPSRFQARDADIEFRKRYSTKGGEVRLHFQFEGGESRTGMNDLNAKLPGNISSLNVECRNSKQHGKKDSKITDHFMRLPKAEDRRKEQWETKHQRTERKIPKYVPPHLSPDKKWLGTPIEEMRRMPRCGIRLPLLRPSANHTVTIRVDLLRAGEVPKPFPTHYKDLWDNKHVKMPCSEQNLYPVEDENGERTAGSRWELIQTALLNKFTRPQNLKDAILKYNVAYSKKWDFTALIDFWDKVLEEAEAQHLYQSILPDMVKIALCLPNICTQPIPLLKQKMNHSITMSQEQIASLLANAFFCTFPRRNAKMKSEYSSYPDINFNRLFEGRSSRKPEKLKTLFCYFRRVTEKKPTGLVTFTRQSLEDFPEWERCEKPLTRLHVTYEGTIEENGQGMLQVDFANRFVGGGVTSAGLVQEEIRFLINPELIISRLFTEVLDHNECLIITGTEQYSEYTGYAETYRWSRSHEDGSERDDWQRRCTEIVAIDALHFRRYLDQFVPEKMRRELNKAYCGFLRPGVSSENLSAVATGNWGCGAFGGDARLKALIQILAAAAAERDVVYFTFGDSELMRDIYSMHIFLTERKLTVGDVYKLLLRYYNEECRNCSTPGPDIKLYPFIYHAVESCAETADHSGQRTGT
[3]
  Km: 66.2 ± 15 µM
  Vmax: 0.84 µmol/min/mg
